How the values were obtained:
[1] = target: Ara h 2 (purified natural peanut allergen) (Arachis hypogaea) (UniProt Q6PSU2); assay: BLI, antibody on anti-human IgG Fc sensors, Ara h 2 as analyte, top 6 nM
[2] = target: Ara h 2 (purified natural peanut allergen) (Arachis hypogaea) (UniProt Q6PSU2); assay: biolayer interferometry
[3] = target: Ara h 2 (purified natural peanut allergen) (Arachis hypogaea) (UniProt Q6PSU2); assay: not named there (biolayer interferometry in Example 1)

Sequence of Ara h 2 (purified natural peanut allergen) (Arachis hypogaea) (Q6PSU2 22-172): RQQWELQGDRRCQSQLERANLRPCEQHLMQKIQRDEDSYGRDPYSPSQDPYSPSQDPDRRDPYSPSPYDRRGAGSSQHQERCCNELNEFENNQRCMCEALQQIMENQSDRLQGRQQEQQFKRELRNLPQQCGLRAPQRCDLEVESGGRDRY

Binder | Kd [1] [nM] | Kd [2] [nM] | Kd [3] [nM]
PA12P3D08 (antibody, human IgG1, V domains shown) VH: QVQLVESGGGVVQPGKSLRLSCAASAFTFRRFAMHWVRQAPGKGLEWVAVISDNGLREDYEDSVKGRFTISRDNSQNTLYLQMNGLRAEDTAVYYCAKVLDYNEYSLYFGMDVWGQGTTVTVSS VL: EVVLTQSPATLSLSPGERATLSCRTSQAISNNFLAWYQQRPGQPPRLLIYASSRRATDTPDRFTGSGSGTDFTLTITRLEPEDFAVYFCQYYSDSPPYTFGPGTKLEIK | 0.014 | – | –
PA13P1H08 variant rCDR1-N (antibody, human IgG1, V domains shown) VH: QVQLVNSGGGVVQPGRSLRLSCVASGFTFSSYGIHWVRQAPGKGLEWVAVISNDGEKSESADSVKGRFTPSRDNSKNTVYLQMNNLRVEDTAVYYCAKVLDYSRYSYYYGMDVWGQGTTVIVSS VL: EIVLTQSPGTLSLSPGGRGTLSCRTSQTINNAHLAWYQHKPGQAPRLLIYGSSERATGVPDRFSGSGSGSDFTLTISSLEAEDFAVYYCQHYGRSPPYTFGPGTKLDIK | 0.016 | – | –
PA15P1D05 (antibody, human IgG1, V domains shown) VH: QVHLVESGGGVVQPGRSLGLSCVASGFTFNYYAIHWVRQAPGKGLEWVAVVSFDGNIIYYADSVKGRFNISRDNSKNTVNLQMNSLRPDDTAVYYCVRDGEYCSGGNCYWGDFDHWGQGSLVTVSP VL: EIVLTQSPATLSLSPGERATLSCRASQSISSEYLTWFQQKPGQAPRLLIYGAFNRATGIPDRFSGSGSGTDFTLTISSLEPEDFAVYYCQQYANWWTFGQGTKVEIK | 0.54 | < 1 | –
PA15P1D12 (antibody, human IgG1, V domains shown) VH: QVHLVESGGGVVQPGRSLGLSCAASGFTFNYYAIHWVRQAPGKGLEWVAVVSFDGNIIYYADSVKGRFNISRDNSKNTVNLQMNSLRADDTAVYYCVRDGEYCSGGNCYWGDFDYWGQGTLVTVSP VL: EIVLTQSPGTLSLSPGERATLSCRASQSISSEYLTWFQQKPGQAPRLLIYGAFNRATGIPDRFSGSGSGTDFTLTISSLEPEDFAVYYCQQYANWWTFGQGTKVEIK | 0.65 | < 1 | –
PA12P1C07 (antibody, human IgG1, V domains shown) VH: QVQLEESGGGVVQPGKSLRLSCVASAFTFKRFAMHWVRQAPGKGLEWVAVISDNGLREDYEDSVKGRFTISRDNSKDTLYLQMNSLRPEDTAIYYCAKVLDYSEYSLYFGMDVWGQGTTVLVSS VL: EIVLTQSPAILSLSPGDRATLSCRTSQTVNSNFLAWYQQKPGQAPRLLIYGASRRAIDIPDRFTGSGSGTEFTLTIARLEPEDFAVYSCQHYSDSPPYTFGQGTKLEIK | 0.017 | – | –
PA13P1H08 variant rFWRs-N (antibody, human IgG1, V domains shown) VH: QVQLVESGGGVVQPGRSLRLSCAASGFTFSTFGMHWVRQAPGKGLEWVAVISNDGEKSYYADSVKGRFTISRDNSKNTLYLQMNSLRAEDTAVYYCAKVLDYSRYSYYYGMDVWGQGTTVTVSS VL: EIVLTQSPGTLSLSPGGRGTLSCRTSQTINNAHLAWYQHKPGQAPRLLIYGSSERATGVPDRFSGSGSGSDFTLTISSLEAEDFAVYYCQHYGRSPPYTFGPGTKLDIK | 0.039 | – | –
PA13P1H08 variant rCDR2-N (antibody, human IgG1, V domains shown) VH: QVQLVNSGGGVVQPGRSLRLSCVASGFTFSTFGIHWVRQAPGKGLEWVAVISYDGSNKESADSVKGRFTPSRDNSKNTVYLQMNNLRVEDTAVYYCAKVLDYSRYSYYYGMDVWGQGTTVIVSS VL: EIVLTQSPGTLSLSPGGRGTLSCRTSQTINNAHLAWYQHKPGQAPRLLIYGSSERATGVPDRFSGSGSGSDFTLTISSLEAEDFAVYYCQHYGRSPPYTFGPGTKLDIK | 0.008 | – | < 1
